Results reported in article PMC5491184.

What was measured:
ezrin = ezrin (UniProt P15311); test: HA-NHE3 IP, LC-MS/MS spectral counts; details: reference: NHE3 wild type; sites S719
[1] = biological target: NHERF3 (endogenous, Caco-2/bbe) (UniProt Q5T2W1); test: HA-NHE3 IP, LC-MS/MS spectral counts; details: reference: NHE3 wild type; sites S719

## NHE3 (from UniProt P26432) NHE3-S719A
ezrin
  other: normalized exclusive spectrum count: weaker; reference 8
[1]
  other: normalized exclusive spectrum count: weaker; reference 4
